Reference: US6982082

Biological target: modified CypA (S99T, F113G, C115M) (CypAgtm), overexpressed in E. coli and purified (UniProt P62937)
Test: direct fluorescence binding assay, purified CypAgtm

Kd: 9 nM
Substance: alpha-cyclopentyl, sarcosine11-CsA (CpSar11-CsA) (peptide)
